Patent US20260116925A1 (ARIZONA BOARD OF REGENTS ON BEHALF OF ARIZONA STATE …, published 2026)

Biological target: T1, Cathepsin G
T1 sequence (P08311 21-244, species assumed, looked up): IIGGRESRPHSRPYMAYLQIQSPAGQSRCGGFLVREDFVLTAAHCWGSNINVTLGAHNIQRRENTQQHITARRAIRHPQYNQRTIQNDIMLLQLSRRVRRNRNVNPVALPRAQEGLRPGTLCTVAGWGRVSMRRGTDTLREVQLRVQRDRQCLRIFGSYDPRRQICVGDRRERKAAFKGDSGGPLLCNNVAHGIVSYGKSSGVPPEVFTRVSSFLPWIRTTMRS
Assay: cell-based or functional assay

B1: recombinant Serpinb3a (mouse-derived), 6×His-tagged, produced in E. coli (other)
chain: HHHHHHMHLFAEATTKFTLELYRQLRESDNNIFYSPISMMTALAMLQLGAKGNTEKQIEKVLQFNETTKKTTEKSAHCHDEENVHEQFQKLMTQLNKSNDAYDLKAANSIYGAKGFPFVQTFLEDIKEYYQANVESLDFEHAAEESEKKINSWVESQTNGKIKDLFPNGSLNRSTIMVLVNAVYFKGQWNHKFDEKHTTEEKFWLNKNTSKPVQMMKQNIEFNFMFLEDVQAKIVEIPYKGKELSMIVLLPVEINGLKQLEEQLTADKLLEWTRAENMHMTELYLSLPRFKVDEKYDLPIPLEHMGMVDAFDPQKADFSGMSSTQGLVVSKVLHKSFVEVNEEGTEAAAATGVEVSLTSAQIAEDFCCDHPFLFFIIHRKTNSILFFGRISSP
inhibitory stoichiometry (A/A0 (405 nm) vs. time): 1 inhibitor:enzyme ratio
